Measured values: patent publication US20200297860 (published 2020)

T1: human mesothelin (human, UniProt Q13421)
T1 chain: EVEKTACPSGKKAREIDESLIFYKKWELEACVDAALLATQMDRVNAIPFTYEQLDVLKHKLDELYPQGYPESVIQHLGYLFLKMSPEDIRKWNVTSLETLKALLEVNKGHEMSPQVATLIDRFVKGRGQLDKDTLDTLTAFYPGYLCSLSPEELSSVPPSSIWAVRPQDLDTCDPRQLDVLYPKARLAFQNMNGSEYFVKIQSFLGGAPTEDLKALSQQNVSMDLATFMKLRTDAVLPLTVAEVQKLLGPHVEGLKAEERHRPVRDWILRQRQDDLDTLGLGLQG


Molecular target: T1, human mesothelin
Assay: SPR

Binder | Kd
346C6-zu (antibody, V domains shown) VH: EVQLVESGGGLVQPGGSLRLSCAASGFSLSSYAMIWVRQAPGKGLEWIGTISTGGITYYASWAKGRFTISRDNSKNTLYLQMNSLRAEDTAVYYCARGGYAASSAYYLPYYFDLWGQGTLVTVSS VL: DIQMTQSPSSLSASVGDRVTITCQSSQSVYNNNNLAWYQQKPGKVPKLLIYLASTLASGVPSRFSGSGSGTDFTLTISSLQCEDAATYYCLGGCDDDADTFAFGGGTKVEIK | 8.9 nM
111B10-zu (antibody, V domains shown) VH: EVQLVESGGGLVQPGGSLRLSCAASGFSLNNYAMSWVRQAPGKGLEWIGSISTGGLAFYANWAKGRFTISRDNSKNTLYLQMNSLRAEDTAVYYCARNGGGSYIFYYFDLWGQGTLVTVSS VL: DIQMTQSPSSLSASVGDRVTITCQASQSISSYLSWYQQKPGKAPKLLIYSASTLASGVPSRFSGSGSGTDFTLTISSLQCEDAATYYCQSYYDIGTSTFGGGTKVEIK | 6.5 nM

Molecular target: human folate receptor alpha (human)
Assay: ELISA

Chain of human folate receptor alpha (human) (P15328 whole entry): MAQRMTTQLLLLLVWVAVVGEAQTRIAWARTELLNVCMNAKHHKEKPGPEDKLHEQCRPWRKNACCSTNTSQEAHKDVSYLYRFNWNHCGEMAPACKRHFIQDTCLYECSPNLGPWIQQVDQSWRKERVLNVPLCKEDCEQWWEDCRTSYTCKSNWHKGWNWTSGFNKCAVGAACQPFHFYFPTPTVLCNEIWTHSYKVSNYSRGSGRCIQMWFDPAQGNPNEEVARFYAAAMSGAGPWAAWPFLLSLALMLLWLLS

Binder | EC50
MORAb003-DBCO-PEG2 eribulin (antibody, V domains shown) VH: EVQLVESGGGVVQPGRSLRLSCSASGFTFSGYGLSWVRQAPGKGLEWVAMISSGGSYTYYADSVKGRFAISRDNAKNTLFLQMDSLRPEDTGVYFCARHGDDPAWFAYWGQGTPVTVSS VL: DIQLTQSPSSLSASVGDRVTITCSVSSSISSNNLHWYQQKPGKAPKPWIYGTSNLASGVPSRFSGSGSGTDYTFTISSLQPEDIATYYCQQWSSYPYMYTFGQGTKVEIK | 0.0191 µg/mL
MORAb003-DBCO-PEG4 VCP eribulin (antibody, V domains shown) VH: EVQLVESGGGVVQPGRSLRLSCSASGFTFSGYGLSWVRQAPGKGLEWVAMISSGGSYTYYADSVKGRFAISRDNAKNTLFLQMDSLRPEDTGVYFCARHGDDPAWFAYWGQGTPVTVSS VL: DIQLTQSPSSLSASVGDRVTITCSVSSSISSNNLHWYQQKPGKAPKPWIYGTSNLASGVPSRFSGSGSGTDYTFTISSLQPEDIATYYCQQWSSYPYMYTFGQGTKVEIK | 0.016 µg/mL
MORAb003-DBCO-PEG4 eribulin (antibody, V domains shown) VH: EVQLVESGGGVVQPGRSLRLSCSASGFTFSGYGLSWVRQAPGKGLEWVAMISSGGSYTYYADSVKGRFAISRDNAKNTLFLQMDSLRPEDTGVYFCARHGDDPAWFAYWGQGTPVTVSS VL: DIQLTQSPSSLSASVGDRVTITCSVSSSISSNNLHWYQQKPGKAPKPWIYGTSNLASGVPSRFSGSGSGTDYTFTISSLQPEDIATYYCQQWSSYPYMYTFGQGTKVEIK | 0.0133 µg/mL
MORAb003-DBCO-ER1138856 (antibody, V domains shown) VH: EVQLVESGGGVVQPGRSLRLSCSASGFTFSGYGLSWVRQAPGKGLEWVAMISSGGSYTYYADSVKGRFAISRDNAKNTLFLQMDSLRPEDTGVYFCARHGDDPAWFAYWGQGTPVTVSS VL: DIQLTQSPSSLSASVGDRVTITCSVSSSISSNNLHWYQQKPGKAPKPWIYGTSNLASGVPSRFSGSGSGTDYTFTISSLQPEDIATYYCQQWSSYPYMYTFGQGTKVEIK | 0.015 µg/mL
MORAb003-ER1235638 (antibody, V domains shown) VH: EVQLVESGGGVVQPGRSLRLSCSASGFTFSGYGLSWVRQAPGKGLEWVAMISSGGSYTYYADSVKGRFAISRDNAKNTLFLQMDSLRPEDTGVYFCARHGDDPAWFAYWGQGTPVTVSS VL: DIQLTQSPSSLSASVGDRVTITCSVSSSISSNNLHWYQQKPGKAPKPWIYGTSNLASGVPSRFSGSGSGTDYTFTISSLQPEDIATYYCQQWSSYPYMYTFGQGTKVEIK | 0.0153 µg/mL
MORAb003-ER1236941 (antibody, V domains shown) VH: EVQLVESGGGVVQPGRSLRLSCSASGFTFSGYGLSWVRQAPGKGLEWVAMISSGGSYTYYADSVKGRFAISRDNAKNTLFLQMDSLRPEDTGVYFCARHGDDPAWFAYWGQGTPVTVSS VL: DIQLTQSPSSLSASVGDRVTITCSVSSSISSNNLHWYQQKPGKAPKPWIYGTSNLASGVPSRFSGSGSGTDYTFTISSLQPEDIATYYCQQWSSYPYMYTFGQGTKVEIK | 0.013 µg/mL
